Data taken from paper PMC9652281, “Design and directed evolution of noncanonical β-stereoselective metalloglycosidases” (Nature Communications, 2022).

Key:
[1] = system: T1, O=C(Cc1cccs1)N[C@@H]1C(=O)N2C(C(=O)O)=C(/C=C/c3ccc([N+](=O)[O-])cc3[N+](=O)[O-])CS[C@H]12; assay: purified protein; format: biochemical, Escherichia coli; conditions: 50 mM Tris-HCl pH 8, room temperature
T1 construct: mature OmpF; His-tag and thrombin site deleted; beta-barrel trimer

[2] = target: the molecule itself; assay: SDS-PAGE of the refolded protein; unfolded OmpF (20 mg/mL) refolded with 1% n-dodecyl-β-D-glucopyranoside and 1% n-dodecyl-β-D-maltopyranoside at 37 °C for 1-2 days; folding and oligomerization determined by 15% SDS-PAGE
[3] = OmpF1Y, 1.2 equiv. ZnCl2, 10 µM protein
[4] = OmpF1, 1.2 equiv. ZnCl2, 10 µM protein
[5] = OmpF2, 1.2 equiv. ZnCl2, 10 µM protein

## OmpF (outer membrane protein F; OmpF1, OmpF1Y, OmpF2 and evolved variants) (Escherichia coli K-12; R104H/R154H)
[1]; [3]
  Km: 2000 ± 1000 µM
  kcat: 0.02 ± 0.01 s⁻¹

## OmpF (outer membrane protein F; OmpF1, OmpF1Y, OmpF2 and evolved variants) (Escherichia coli K-12; R104H/R154H/Y124H)
[1]; [4]
  Km: 1400 ± 600 µM
  kcat: 0.017 ± 0.004 s⁻¹

## OmpF (outer membrane protein F; OmpF1, OmpF1Y, OmpF2 and evolved variants) (Escherichia coli K-12; L105H/R154H/Y124H)
[1]; [5]
  Km: 1700 ± 600 µM
  kcat: 0.025 ± 0.005 s⁻¹

B1: OmpF1 (OmpF R82H/Y102H/R132H) (natural protein, UniProt P02931 23-362, looked up)
chain: AEIYNKDGNKVDLYGKAVGLHYFSKGNGENSYGGNGDMTYARLGFKGETQINSDLTGYGQWEYNFQGNNSEGADAQTGNKTHLAFAGLKYADVGSFDYGRNHGVVYDALGYTDMLPEFGGDTAYSDDFFVGHVGGVATYRNSNFFGLVDGLNFAVQYLGKNERDTARRSNGDGVGGSISYEYEGFGIVGAYGAADRTNLQEAQPLGNGKKAEQWATGLKYDANNIYLAANYGETRNATPITNKFTNTSGFANKTQDVLLVAQYQFDFGLRPSIAYTKSKAKDVEGIGDVDLVNYFEVGATYYFNKNMSTYVDYIINQIDSDNKLGVGSDDTVAVGIVYQF
notes: outer membrane protein F (OmpF), UniProt P02931, expressed without the native 22-residue signal peptide; His-tag and thrombin site were deleted from the plasmid; Crystallised with 1.2 equiv. of Zn ion per protomer; also called R132H/Y102H/R82H; source: E. coli BL21(DE3)
[2]
  stoichiometry N: 3

B2: OmpF2 (OmpF L83H/Y102H/R132H) (natural protein, UniProt P02931 23-362, looked up)
chain: AEIYNKDGNKVDLYGKAVGLHYFSKGNGENSYGGNGDMTYARLGFKGETQINSDLTGYGQWEYNFQGNNSEGADAQTGNKTRHAFAGLKYADVGSFDYGRNHGVVYDALGYTDMLPEFGGDTAYSDDFFVGHVGGVATYRNSNFFGLVDGLNFAVQYLGKNERDTARRSNGDGVGGSISYEYEGFGIVGAYGAADRTNLQEAQPLGNGKKAEQWATGLKYDANNIYLAANYGETRNATPITNKFTNTSGFANKTQDVLLVAQYQFDFGLRPSIAYTKSKAKDVEGIGDVDLVNYFEVGATYYFNKNMSTYVDYIINQIDSDNKLGVGSDDTVAVGIVYQF
notes: outer membrane protein F (OmpF), UniProt P02931, expressed without the native 22-residue signal peptide; His-tag and thrombin site were deleted from the plasmid; Crystallised with 1.2 equiv. of Zn ion per protomer; also called R132H/Y102H/L83H; source: E. coli BL21(DE3)
[2]
  stoichiometry N: 3
